{"source": "the DeepSol protein solubility set"}
{"assay": "soluble on expression in E. coli; label from the status in PepcDB or PDB records"}
{"sequence": "MSLIYCETERLILRDWHEDDLLPFQKMNANYDVRKYFPSLLSYRRSELDMRTMDAVIKDYGIGLFAVEDKESHQWIGFIGLNYIPETSDYPFKELPLYEIGWRLLPEFWGKGLATEGAKATLKLAEEHQIYDVYSFTAEANKASQRVMEKIGMTVYDHFELPNLSKYHLLKRQVRYYINLRKEGHHHHHH", "soluble on expression in E. coli": "soluble"}
{"sequence": "MSLKAFGFNQYGNSNVMEELNIPIPKIKPGEVLVKTTAFAINAFDIAVRNGQFRNNVTLLFPTILGTDGVGRIVKLGAGVHDYSIGDDVLARPGIGTYTEYFKVSVDHLGSRPSNYSPYEAAGLPLSGITAYNTLVHIAHVKQGQTVVILGSSGGVGSMLVQMAHALGLYVIGTDAESARETVLNLGASEFGAYDTERVSSKFKSMADILIDATNLGASIAGIQIIKPTGTYVSLTTLPKDRTLKPDVIYRQVIPRREYRDSDAFTTISLMIRNNQLHVPIDHLESFTLDGIRKGQSDVENGSPDGKVIVTLEGHHHHHH", "soluble on expression in E. coli": "not soluble"}
{"sequence": "MSLKAIAVDMDGTFLDSKKTYDKPRFEAIFTELRNRDITFIAASGNQYAKLKSIFGDRDMYFISENGAVIYKGNELYNYKSFNRQVFQQVVDYLNMNQSIDQLVICGLKSAYILKHTSEAFKEDTRFYYHQLKEIDSLQQLPEDDYVKIAFNINRETHPNVDEEVATQFSNDIKLVSSGHDSIDIIMPNMTKGQALKRLLDKWEMSPSELMAFGDANNDKDMLAFAKHSYVMENSHDEELFNIASAVAPSNDKQGVLTIIEQEVLNKEGHHHHHH", "soluble on expression in E. coli": "soluble"}
{"sequence": "MSLKAIIFDMDGVLVDSMRFQADAWAKAFQDAGINIVREDIYELEGSNDKRLIKSIFKEARKEPEPEHFERLPEKKRDLLEFDRIKPFEGIPECLDELKRHFRLAMVSGSNRNTVGKIVDKFFSGYFDVVINGSDLERGKPDPDPYLKALEMLGLTKNECMVIENAPLGITAAKRAGLYCVAVASMLEPEKVQHADLVLEDHASLFDYLKSLIPGKPQTEGHHHHHH", "soluble on expression in E. coli": "soluble"}
{"sequence": "MSLKARFLLLAALLSGVAGAYTVKKGDTLYSLARGSGLTVDALMRLNGLSTPELRVGQVIKLPGEGAATPATPAPAAPTPATPAPAAPAPAPAVPTKLPTVATAANVLKLPGVTITAPKALKMGDGFALRLSGEQAANVTVRFPSELGEDVRQPNEELRPLWSSGQYIVPGRVVLGKTTPVIYEVRLGGDVVRGQIPVGDLGQRVQHLNLPPSISKVLQDPAREAEDAAVEQAYQRRTPQQWQQPFASALASGKATSSSFGQPRTYVAGGKVAYHYGTDYPARSGTAVLAINDGTVVIAGRYPVRGGLVVIDHGAGVVSLYFHQSKVTAKVGQQIKRGQKVGEVGSTGLSAGPHLHLEVRVRGEGTNPAGWMGKLWPEGHHHHHH", "soluble on expression in E. coli": "not soluble"}
{"sequence": "MSLKASELKKGFAIISNGKTLLIKDIEVTTPGGRGGSKIYKLRCTDLNTGARVDERYKSDDVLDTVEMNKRPISFSYIDGDEYVFMNNDDYTPYNFKKDEIEDELLFITEEIQGMSVVLVDGEAVAIELPSSVEMVIEETDPSIKGASASSRTKPARMPTGLVVQVPEYIATGDRIVINTAERKFMNRAEGHHHHHH", "soluble on expression in E. coli": "soluble"}
{"sequence": "MSLKAVFVYEPLGNENVKVEEVSEPKKEQGKVIIEVKKAGLNPIDYNVINGKIVYRLNPLPHIPGSEVYGIVKEDSGSFKKGERVIVYNRIFDGTCSQCISGNEHLCENGGIWGVVSNGGYSQLVQIDEKNVFRVPEDASDELAASIGVAALTSFRAIRISGCSPGRSILIYGASGNTGMFAVQLASMMGCDVYAVSRKDWIESFGAIEVFRPDNIPPDMKFDIIINPLGSLFWGDALKHLRTRGILVSFGVLTGREGSIDIADLYTGEKKILGSTGGTREDLRGLLEFMKTHELRVKIAREFKINEIKDALKYYSETHDGRILISMREGHHHHHH", "soluble on expression in E. coli": "not soluble"}
{"sequence": "MSLKAVIFDLDGVITDTAEYHFLAWKHIAEQIDIPFDRDMNERLKGISREESLESILIFGGAETKYTNAEKQELMHRKNRDYQMLISKLTPEDLLPGIGRLLCQLKNENIKIGLASSSRNAPKILRRLAIIDDFHAIVDPTTLAKGKPDPDIFLTAAAMLDVSPADCAAIEDAEAGISAIKSAGMFAVGVGQGQPMLGADLVVRQTSDLTLELLHEEWEQYRIRESEGHHHHHH", "soluble on expression in E. coli": "soluble"}
{"sequence": "MSLKDLVVGMELGYPPFEMSDKTGKASGISVDFLEAFAKKNGYKLVVKNIAWDGLIPALKTAKIDLIMSSMTITDKRKKVVDFSIPYAKANLAILTPLNSDITNIKDLDKKGKVLALKRGSTGHLYAVKNLKNATINLFDKENAAILEVIQGKADGFFYDQLTIYRTWQKHQDTTRAILAPFQENPEFWGIAVRKGDEALKDKLDNFIDESRKNGFLDFLGNKYLKDIKEGHHHHHH", "soluble on expression in E. coli": "soluble"}
{"sequence": "MSLKFAAGFVLIDAPHSALNMLGIDESLPDRNVTRVKTLRRGGNRYVYISPQAWRYWWRITLKEYFNWELSPLFREEKQVFTAANPIKYPDDDVFGYMRAYKKNKVNVTVTRISPLKNTPLVSVLPDRSSLTIDEGYASRHEGDPVPYSQEFYSTVLKGAFSLDLDLVGRFTTKNKAGYKNLLTRDDIPKKGKGEDIVKEIKELEELARNVGVEIKDGEWIMPKEIRKKRSIETIKALRYLTGGAKQTQYHTDVTPKLFLGIIVNGGINPFISDIVREEKGEIILDAEALATRLEDFSDIIDSKLFLGYDMGFVRSLGLEIEAIKSTAGIEVVEGKVGEIIEKFAEEAGKYYIEGHHHHHH", "soluble on expression in E. coli": "soluble"}
{"sequence": "MSLKGIVEKSVGDLETLAFDGRTYIEYLNAVTESEKALQSNHFELSLRTEATQGLVLWIGKVGERADYMALAIVDGHLQLSYDLGSQPVVLRSTVKVNTNRWLRVRAHREHREGSLQVGNEAQVTGSSPLGATQLDTDGALWLGGMQKLPVGQALPKAYGTGFVGCLRDVVVGHRQLHLLEDAVTKPELRPCPTEGHHHHHH", "soluble on expression in E. coli": "soluble"}
{"sequence": "MSLKHHHNHHGEAGFKRKVDYLDRPERSEVLSPEDFLQAMPIGKTASILDLGAGTGFLTIPAAKLVDNTVFALDLDAKMLELIESKAKEAGLANVETLEASMDDIPLEANSVDVVLASLVLHEADSLADVLREVSRVVKTGGYFASLEFDTKGTDLKGPPMEIQISAEKLKEELAGFGFEVVKNWQLDEGMYVSIAVKKEGHHHHHH", "soluble on expression in E. coli": "soluble"}
{"sequence": "MSLKIAIVNDMPMAVEALRRALAFDPSHEVVWVATNGAEAVKYCAELTPDLILMDLIMPVMDGVEATRRIMAESPCAIVIVTVDRQQNVHRVFEAMGHGALDVVDTPALGAGNAQEAAAPLLRKILNIGWLIGQRGSRVRSAPQPLRSGAPRQSLVAIGSSAGGPAALEVLLKGLPKDFAAAIVLVQHVDQVFAAGMAEWLSSASGLEVRLAREGEPPQSGKVLLAGTNHHIRLLKNGTLAYTAEPVNEIYRPSIDVFFESVASFWNGDAVGVLLTGMGRDGAQGLKLMRDQGYLTIAQDQNSSAVYGMPKAAAAIGAASEIRPLDKIAPRLLEIFAKEGHHHHHH", "soluble on expression in E. coli": "soluble"}
{"sequence": "MSLKIIAFYLPQFHQIKENDRWWGKGFTEWTNTKSAQPLFSGHYQPREPYQDFYYDLTTPSVRKWQAEIAKAYGIYGFCYYHYWFKGKRLLETPFNEVLKMKEPDFPFCLSWANEPWTKSWDGLDKHILMPQDYGDISDWKEHFDYLLQAFQDERYIYIDDKPLFIIYRPGHIPDCEKMLNYWNALARENGLKGIYFAETLNSFPLPNINGFDASIQFEPFYTIAHDSSSDINKVIYDSDMQLNVWDYDKVWMYILQRSLPKKKTFPGAFVDWDNTARRKNANSSIFVGSTPEKFTIYLSKQIHRTYSFYNSEFLFINAWNEWAEGTYLEPDKKYGFSYLEGVKNAIDRGMKAYKKDEGHHHHHH", "soluble on expression in E. coli": "soluble"}
{"sequence": "MSLKIKVGLIGFGRMGRFYLKEMQKSGRWDVAYICDINPDCRELAKQLSPESKILENEQEMFDDESVQVVGLFALADSRLDRIEKAIKYGKHIISEKPVSDTIDKEWKVVDITEKASCFSTVNLYLRNAWYHQTIKQFIDQGEIGELAILRICHMTPGLAPGEGHEYEGPAFHDCGMHYVDIARWYAGCEYKTWHAQGVNMWSYKDPWWVQCHGTFQNGVVFDITQGFVYGQLSKDQTHNSYVDIIGTKGIARMTHDFKTAVVDLRGVTQTHHIEKPFGGKNIDVLCDLFADSIETGIRNPQLPLIRDSAIASEYAWTFLHDAYTHDLPAIGEGHHHHHH", "soluble on expression in E. coli": "soluble"}
{"sequence": "MSLKINAILDQSNASAEKVDAYQVQLTNGISEAKNIADEAGKEAVQIATDAGNQANETANQAMNNAKTAIMIAGNAVSTANNNKQEFDTLRNDFDQLVAEAGDSNPEIVQARTDTQGIKQATLANRLQIDLNDRMTKADGISLLAKPTTVKMKLDFNGKTAGNTATNANSYSTDFTAKILKKPTEVWEEVSQADYNKMASRDDEGVKTGSTQSGVIPQQLAAFNLVEAAKKLIPQMFETVTTDEAVAFIRQNVQFFTINQRVKAAAPNNQTIKIATYLPTTDNWVTQIQESAKEFGDFSIQINDQNFITDEGFIYLMSYTDSSNGVTPASLEVDYVGLHIGLSVDAQAVLAKSGFVQAEQLNTHMENQDNPHQVTAEQVGLGNVENYGFASDSEAVAGTLTSKYMHPKNVAEAIKGQAVTQTGDQEIAGVKNFVTMPTVNGVPLESSRMAIYEASGVGEVEAKYQAAFNKDNMKFVLIRVGNRVDAFVRCNLSDPTKLNNNLVKVFTVPTGYTLSTKITKGIWNLALTAMQYTFPQPNCAGLYEMGNQGILFGANRAGNIYLQGSWYTDDPFPTKEGHHHHHH", "soluble on expression in E. coli": "soluble"}
{"sequence": "MSLKITIYDLAELSGVSASAVSAILNGNWKKRRISAKLAEKVTRIAEEQGYAINRQASMLRSKKSHVIGMIIPKYDNRYFGSIAERFEEMARERGLLPIITCTRRRPELEIEAVKAMLSWQVDWVVATGATNPDKISALCQQAGVPTVNLDLPGSLSPSVISDNYGGAKALTHKILANSARRRGELAPLTFIGGRSSDHNTSERLRGFHDAHRELGLSVPQANILAPGYSKGHVEDCLQERFGSAKTLLQGIFVNSTISLEGVVRWLSQVGLTGSEQPPMGCFDWDPFVYLLGHDIDMVQQDVPAMLDAVFSIIDAGEASQQRIEIPPRLMSSSEGHHHHHH", "soluble on expression in E. coli": "soluble"}
{"sequence": "MSLKIYFLPMLLSLFFLGACDKNDEIIPEDADENFITSVVMTVDGKSYTADITDNTVTITVPYTVSLNNAEVEFKYTTSATIIPDPETVTDWDNERTFRVTSYNGDAREYTYKVVKSEIESDGDVELKTTEEVASFAATKTTVVKGNLIIGSDAEEAEKITDISALASLKEVTGNIVIRNSYNGADLTGLDNIVSAGGLQVGSTDVASKATELHMISMKALETLSGDISVYNDQVTYVLFEKLATIEGSVMFNASSLQSFEFPVLTTVGQDLNLQGLNEENTAAGSIASLEIPELTSVGGVLSVNNLAKLTSMSFLKLKETGGLDFHTVPVMLETINLPEIETVNGSIIMEANMEAPPTGSFVPQRNDVLQAFGGMDKLTTIKGQIKIKNFTALKQLPDWSKITTLGSITLDYLEDVSGTLLLPNARFETFGETAPQIEIINKVQLSKIETAEDLSNVNFVITSLTNNKFPEITFKNIKDFTCKPTTNNTDYTISTIQHVYGNLNVTGQMRSNAKFPDLEIIDGYGYIQIPMFASITMPVLKEVGGQFYLSGNFTSCNLPLLSKVCCSASPVYYKEGEGSLAISLQSKSLDIPELLHVGGEGLFVNKATGITCDKLQTIDGTLQIKSATSLSQETLSMEKLETLHGVVFDGLTKFTDYTFFGKFIENGMITGESWSVTKCGYNPTFQNMKDKQYTEGHHHHHH", "soluble on expression in E. coli": "soluble"}
{"sequence": "MSLKKIGIIGAGGIARAHATALSTIKNAELVGVYDINQQNAESFVKTFGGKSFENVDELIDASEGLIVASPNFCHKEHALQALGKHKHVLCEKPMAISLEEASIMKDTAERLSVRASMGFNYRYLSYVNILKSLIINNELGNILSIKVHFKKNSALRRKKFTWRDDANSKKTSGSLGDLGIHLIDMVWYLFESDFITESVRAKMNTNVKTKEDKQVLVDDYAEIYGQLRNKVFVNIITSKCSVPEDCGFSIEVVGHKKEFKYHTGNPHVYKLIDGLNVVDCPVPQSLLNDPPNEFYGWADSFRSELINWIASTQNDWVEIPSFSDGFRSQEVLEMFFEKDSNSQPMSVSAVNEGHHHHHH", "soluble on expression in E. coli": "soluble"}
